For this experiment, the target named is T1, CD20 peptide on HLA-A*02:01 (human).
T1 peptide: SLFLGILSV
Kind of experiment: multimer staining.

B1: TCR of SEQ ID NOs 181 and 155 (CDR3 alpha and CDR3 beta) (TCR)
alpha TRAV24 J-28 CDR3: AFMPGAGSYQLT
beta TRBV4-2 J2-7 CDR3: ASSQGLTYEQY
For the molecule B1, the binding result is recorded as “recognises”.

B2: TCR of SEQ ID NOs 175 and 148 (CDR3 alpha and CDR3 beta) (TCR)
alpha TRAV12-2 J-33 CDR3: AGIMDSNY
beta TRBV4-2 J2-7 CDR3: ASSHGNGYEQY
Take B2: the binding result is on record as “recognises”.

B3: TCR of SEQ ID NOs 180 and 154 (CDR3 alpha and CDR3 beta) (TCR)
alpha TRAV5 J-23 CDR3: AEWGQGGKLI
beta TRBV12-4 J2-7 CDR3: ASSPGLTYEQY
For the molecule B3, the binding result was “recognises”.

B4: TCR of SEQ ID NOs 179 and 153 (CDR3 alpha and CDR3 beta) (TCR)
alpha TRAV38-2/DV8 J-43 CDR3: AYASFDMR
beta TRBV13 J2-3 CDR3: ASSLGSANTQY
As for B4, the binding result is given as “recognises”.

B5: TCR of SEQ ID NOs 177 and 150 (CDR3 alpha and CDR3 beta) (TCR)
alpha TRAV30 J-57 CDR3: GTQGGSEKLV
beta TRBV19 J2-7 CDR3: ATAPGLSYEQY
For B5, the binding result is “recognises”.

The values are drawn from patent publication US20110142842A1 (published 2011).
